These results are taken from US10793871B2, “Nucleic acid molecule encoding glei protein variant with increased phytic acid sensitivity and use thereof” (University-Industry Foundation, Yonsei University, priority 2015, dated 2020).

Data set [1] concerns the target 6x-histidine-fused LOS4 (LOS4-His) (Arabidopsis) (UniProt Q93ZG7).
For data set [2] the target is unchanged. The source holds these as a separate data set.
Data set [3] deals with T1, LOS4 ATPase (Arabidopsis thaliana, UniProt Q0WPZ7).
T1 construct: LOS4 was cloned into a pET-29a vector for His fusion; made in house; host or cells: Escherichia coli Rosetta (DE3) for LOS4-His; BL21 (DE3) for MBP-Gle1C
T1 sequence (Q0WPZ7 244-611): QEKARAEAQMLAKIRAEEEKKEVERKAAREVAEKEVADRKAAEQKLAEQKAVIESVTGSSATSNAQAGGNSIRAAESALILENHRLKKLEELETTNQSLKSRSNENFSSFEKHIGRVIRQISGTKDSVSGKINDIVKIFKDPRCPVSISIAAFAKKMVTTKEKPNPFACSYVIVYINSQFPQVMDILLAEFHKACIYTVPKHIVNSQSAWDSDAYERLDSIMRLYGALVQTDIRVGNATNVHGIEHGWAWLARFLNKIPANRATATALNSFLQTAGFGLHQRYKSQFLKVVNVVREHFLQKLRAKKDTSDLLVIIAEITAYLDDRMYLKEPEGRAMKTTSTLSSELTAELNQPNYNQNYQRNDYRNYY
The data set is described as follows: Steady-state ATPase assay of LOS4-His. It is filed as biochemical. The settings on record: MBP-Gle1C alone (2 μM), without LOS4. The protocol:
(§1) A steady-state ATPase assay was performed as described by Alcázar-Román et al. (Inositol hexakisphosphate and Gle1 activate the DEAD-box protein Dbp5 for nuclear mRNA export. Nat. Cell Biol. 8: 711-716, 2006) with slight modifications. The ATPase assay was performed with a LOS4-His protein in a 96-well plate using a buffer containing 20 mM HEPES (pH 7.5), 150 mM NaCl, 3 mM MgCl2, 1 mM DTT, 2 mM ATP, 6 mM phosphoenolpyruvate, 1.2 mM NADH, 1 mg/ml BSA and 2% (v/v) pyruvate kinase/lactate dihydrogenase (Sigma-Aldrich) in a total volume of 100 μl. Polyadenylic acid was added at 50 μg/ml or different concentrations as described above. Absorbance at 340 nm was measured using a VersaMax absorbance microplate reader (Molecular Devices), and the data were analyzed using SoftMax Pro software (Molecular Devices).
(§2) Gle1 and Gle1C (aa residues 244-611) were cloned into a pMAL C2X vector (New England Biolabs) for MBP fusion, LOS4 was cloned into a pET-29a vector for His fusion. MBP-Gle1 and MBP-Gle1C proteins were expressed in a BL21 (DE3) strain, and LOS4-His proteins were expressed in a Rosseta (DE3) strain of Escherichia coli. Cells were grown at 37° C. to an A600 of 0.4, shifted to 16° C., and induced by 0.25 mM IPTG for 16 hours. The MBP- and His-fusion proteins were purified following the manufacturer's introductions using MBP Excellose (Bioprogen) and His60 Ni Superflow™ resin (Clontech), respectively.

The subject of data set [4] is LOS4 ATPase. The data set is described as follows: Steady-state ATPase assay of LOS4-His. The settings on record: for apparent kcat of LOS4-His: 0-2 mM ATP. It counts as biochemical, Arabidopsis thaliana. The protocol:
as §1, §2

Data set [5] concerns the target T2, LOS4 RNA helicase activity (Arabidopsis thaliana, UniProt Q93ZG7).
T2 construct: LOS4 was cloned into a pET-29a vector for His fusion; made in house; host or cells: Escherichia coli Rosetta (DE3) for LOS4-His; BL21 (DE3) for MBP-Gle1
T2 sequence (Q93ZG7 1-496): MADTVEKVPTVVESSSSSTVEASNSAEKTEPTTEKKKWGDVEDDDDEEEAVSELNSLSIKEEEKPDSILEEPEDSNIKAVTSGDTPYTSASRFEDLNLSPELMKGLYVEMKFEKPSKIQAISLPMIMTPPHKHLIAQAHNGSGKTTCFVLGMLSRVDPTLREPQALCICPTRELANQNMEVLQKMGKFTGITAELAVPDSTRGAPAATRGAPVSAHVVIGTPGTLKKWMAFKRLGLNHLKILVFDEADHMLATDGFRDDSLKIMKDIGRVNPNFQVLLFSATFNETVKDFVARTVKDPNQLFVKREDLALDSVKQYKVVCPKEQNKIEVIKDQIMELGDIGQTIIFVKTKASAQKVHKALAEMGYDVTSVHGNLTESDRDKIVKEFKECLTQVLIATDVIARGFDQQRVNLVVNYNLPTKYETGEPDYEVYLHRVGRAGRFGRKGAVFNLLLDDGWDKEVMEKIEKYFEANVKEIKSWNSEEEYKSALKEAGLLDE
The data set is described as follows: In vitro nucleic acid-melting assay with hairpin-shaped molecular beacons. It counts as biochemical. The note with it: in the presence of ATP; LOS4-His:MBP-Gle1 1:1, 1:2, 1:4 or LOS4-His only. The protocol:
A nucleic acid-melting assay was performed as described by Kim et al. (Cold shock domain proteins and glycine-rich RNA-binding proteins from Arabidopsis thaliana can promote the cold adaptation process in Escherichia coli. Nucleic Acids Res. 35: 506-516, 2007) using 78-nucleotide-long, 9-bp-containing, hairpin-shaped molecular beacons conjugated with a fluorophore (tetramethylrhodamine) and a quencher (Dabcyl). Spectrofluorometry was performed using a fluorescence spectrophotometer (Hitachi F-2000) at an excitation wavelength of 555 nm and an emission wavelength of 575 nm.

The next data set deals with T3, LOS4-His (Arabidopsis thaliana, UniProt Q93ZG7).
T3 construct: LOS4 was cloned into a pET-29a vector for His fusion; made in house; host or cells: Escherichia coli Rosetta (DE3) for LOS4-His; BL21 (DE3) for MBP-Gle1
T3 sequence (Q93ZG7 1-496): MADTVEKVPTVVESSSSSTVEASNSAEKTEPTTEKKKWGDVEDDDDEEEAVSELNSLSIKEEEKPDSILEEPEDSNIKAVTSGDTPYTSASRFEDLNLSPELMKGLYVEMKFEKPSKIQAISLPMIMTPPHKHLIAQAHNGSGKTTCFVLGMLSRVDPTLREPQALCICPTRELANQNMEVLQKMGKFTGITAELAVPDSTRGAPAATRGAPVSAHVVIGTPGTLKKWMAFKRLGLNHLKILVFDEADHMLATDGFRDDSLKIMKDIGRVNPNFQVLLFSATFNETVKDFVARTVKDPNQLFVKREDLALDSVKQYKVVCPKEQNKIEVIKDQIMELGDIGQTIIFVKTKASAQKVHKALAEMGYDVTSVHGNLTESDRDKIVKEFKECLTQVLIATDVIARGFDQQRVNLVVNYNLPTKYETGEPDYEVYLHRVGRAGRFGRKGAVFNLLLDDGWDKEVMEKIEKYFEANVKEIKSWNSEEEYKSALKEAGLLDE
Kind of data set: In vitro pull-down assay. It counts as binding. The note with it: Coomassie blue staining of eluted proteins. The protocol:
MBP and MBP-Gle1 proteins immobilized on MBP Excellose (Bioprogen) were incubated with LOS4-His proteins for 2 hours at room temperature. Similarly, LOS4-His proteins immobilized on a His60 Ni Superflow™ resin (Clontech) were incubated with MBP or MBP-Gle1 for 2 hours at room temperature. After extensive washing of the resins, the bound proteins were eluted with 2× SDS sample buffer, and the eluted proteins were visualized by Coomassie blue staining.

MBP-Gle1C (ID) came in with an LOS4 ATPase activity in the absence of InsP6 (fold decrease) in data set [1] of 2.
With “MBP fusion protein of the carboxyl-terminal domain of Gle1 (MBP-Gle1C; amino acid residues 244-611)”, in data set [2], the apparent kcat of LOS4-His ATPase was found to be 0.565 s⁻¹.

B1: MBP-Gle1C: MBP fusion protein of the carboxyl-terminal domain of Gle1 (amino acid residues 244-611), wild type (protein)
chain: QEKARAEAQMLAKIRAEEEKKEVERKAAREVAEKEVADRKAAEQKLAEQKAVIESVTGSSATSNAQAGGNSIRAAESALILENHRLKKLEELETTNQSLKSRSNENFSSFEKHIGRVIRQISGTKDSVSGKINDIVKIFKDPRCPVSISIAAFAKKMVTTKEKPNPFACSYVIVYINSQFPQVMDILLAEFHKACIYTVPKHIVNSQSAWDSDAYERLDSIMRLYGALVQTDIRVGNATNVHGIEHGWAWLARFLNKIPANRATATALNSFLQTAGFGLHQRYKSQFLKVVNVVREHFLQKLRAKKDTSDLLVIIAEITAYLDDRMYLKEPEGRAMKTTSTLSSELTAELNQPNYNQNYQRNDYRNYY
Consider B1, for which the “intrinsic ATPase activity” value with LOS4 ATPase [3] is on record as “did not show intrinsic ATPase activity”. In addition, the “LOS4-His ATPase activity on addition of increasing amounts of protein” value with LOS4 ATPase [4] (0-4 μM MBP-Gle1C, 1 μM LOS4-His, 2 mM ATP, RNA (FIG. 4C)) was “activated LOS4-His ATPase activity in a concentration-dependent manner”. The “stimulation of LOS4 ATPase activity in the absence of InsP6” value in the data set on LOS4 ATPase [4] (1 μM LOS4-His, 2 mM ATP, RNA, 2 μM MBP-Gle1C or variant, no InsP6) is “activated LOS4 ATPase activity to similar degrees”. Besides, in the data set on LOS4 ATPase [4] (LOS4-His 1 μM with MBP-Gle1C 2 μM vs LOS4-His alone), the “increase in the overall catalytic rate of LOS4” value is “approximately two-fold”. Besides, in the data set with LOS4 ATPase [4] (LOS4-His (1 μM) with MBP-Gle1C (2 μM)), the “apparent kcat of LOS4-His” value was 0.565 s⁻¹. For the same molecule, in the data set with LOS4 ATPase [4] (LOS4-His:MBP-Gle1C 1:2, addition of RNA (polyadenylic acid) at different concentrations), the “maximal increase in LOS4 ATPase activity with RNA” value is reported as ~3 fold. In the data set on LOS4 ATPase [4] (with RNA, InsP6 0-100 μM), the “InsP6 concentration at which LOS4-stimulating activity increases above basal” value amounted to 1 µM, the “InsP6 concentration giving maximum LOS4-stimulating activity” value turned out to be 10 µM and the “InsP6 concentrations at which only basal LOS4-stimulating activity is maintained” value is 1 to 100 nM.

B2: LOS4-His: 6×-histidine-fused LOS4, Arabidopsis DEAD-box ATPase/RNA helicase, homolog of yeast Dbp5 (protein)
chain: MADTVEKVPTVVESSSSSTVEASNSAEKTEPTTEKKKWGDVEDDDDEEEAVSELNSLSIKEEEKPDSILEEPEDSNIKAVTSGDTPYTSASRFEDLNLSPELMKGLYVEMKFEKPSKIQAISLPMIMTPPHKHLIAQAHNGSGKTTCFVLGMLSRVDPTLREPQALCICPTRELANQNMEVLQKMGKFTGITAELAVPDSTRGAPAATRGAPVSAHVVIGTPGTLKKWMAFKRLGLNHLKILVFDEADHMLATDGFRDDSLKIMKDIGRVNPNFQVLLFSATFNETVKDFVARTVKDPNQLFVKREDLALDSVKQYKVVCPKEQNKIEVIKDQIMELGDIGQTIIFVKTKASAQKVHKALAEMGYDVTSVHGNLTESDRDKIVKEFKECLTQVLIATDVIARGFDQQRVNLVVNYNLPTKYETGEPDYEVYLHRVGRAGRFGRKGAVFNLLLDDGWDKEVMEKIEKYFEANVKEIKSWNSEEEYKSALKEAGLLDE
In the case of B2, the “apparent kcat of LOS4-His” value with LOS4 ATPase [4] (LOS4-His (1 μM) alone) came out at 0.267 s⁻¹. Besides, the “beacon fluorescence (LOS4 RNA helicase activity)” value in data set [5] is recorded as “did not increase the fluorescence of the beacons”.

B3: MBP-Gle1: maltose-binding protein (MBP)-fused full-length Arabidopsis Gle1 (protein)
chain: MGIVLEPPCPKSVDGISIDPEPNWNFESLVAEIASVEKKLNGFSMYPQPITNTTLRMGRRGGGFVMHVSEDEMESDEGEESDDEEEEEDHSQICTAGKRFACDELYLSDESDEEFDHEPEYMMNKLGLAESALYEVINDHQTEIKDDIRNQVSVVETEIMNEIETSLSAIARVEKYSETRKEVERKLDLQYQRKVAEALDTHLTAVQREHKIKSQIEERKIRSEEAQEEARRKERAHQEEKIRQEKARAEAQMLAKIRAEEEKKEVERKAAREVAEKEVADRKAAEQKLAEQKAVIESVTGSSATSNAQAGGNSIRAAESALILENHRLKKLEELETTNQSLKSRSNENFSSFEKHIGRVIRQISGTKDSVSGKINDIVKIFKDPRCPVSISIAAFAKKMVTTKEKPNPFACSYVIVYINSQFPQVMDILLAEFHKACIYTVPKHIVNSQSAWDSDAYERLDSIMRLYGALVQTDIRVGNATNVHGIEHGWAWLARFLNKIPANRATATALNSFLQTAGFGLHQRYKSQFLKVVNVVREHFLQKLRAKKDTSDLLVIIAEITAYLDDRMYLKEPEGRAMKTTSTLSSELTAELNQPNYNQNYQRNDYRNYY
Turning to B3, in the data set on LOS4 ATPase [4] (LOS4-His 1 μM, ATP 2 mM, RNA 50 μg/ml and MBP-Gle1 (full length) 2 μM), the “induction of LOS4 ATPase activity” value is “threefold”. In the data set with LOS4-His, the “pull-down by nickel resin-bound LOS4-His” value is “could pull down MBP-Gle1”. Besides, in data set [5], the “beacon fluorescence (LOS4 RNA helicase activity)” value is on record as “significant increase in fluorescence in a concentration-dependent manner”.
